Data as given in patent publication US9758785B2, “miR-520 microRNAs sensitize cancers to platinum-based therapy” (BAYLOR COLLEGE OF MEDICINE, priority 2012, dated 2017).

Tests used:
[1] = test system: OVCAR8 xenografts; test: Survival and tumor response of xenografted mice treated with cisplatin; format: in vivo
Description: Permission to perform animal experiments was obtained from the Institutional Animal Care and Use Committee (IACUC) for Baylor College of Medicine. Eight-week female athymic (Foxn1^nu/nu) mice were purchased from the National Cancer Institute-Charles River and maintained on a standard diet ad lib. Each animal was inoculated intraperitoneally with 2.5×10^6 cells stably transfected with vector driving miR-520h, a non-targeting miRNA control or empty vector. Expression of miR-520h was measured in cell lines using Taqman assays immediately prior to inoculation. Tumor xenografts were followed weekly for tumor progression or regression using the Image Station In-Vivo FX system (Kodak Molecular Imaging Systems, New Haven, Conn.) using endogenous RFP encoded by the pLemiR vector as a tag. At each time point, mice were anesthetized with isoflurane and placed in an imaging chamber, after which, fluorescent intensity images with x-ray overlay were obtained and analyzed. At the completion of the study, mice were euthanized after sedation under isoflurane (Abbott Laboratories, North Chicago, Ill.). For experiments involving treatment, cisplatin was administered at 5 mg/kg to mice by tail vein injection weekly for 4 weeks, after which, 1.5 mg/kg was administered biweekly. Tumor volume and distribution for all animals in each experiment were documented and correlated with imaging results.
To determine whether expression of miR-520h impacted responses of ovarian cancer xenografts to systemically administered chemotherapy, the inventors inoculated Fox1nu/nu mice with 4×10^6 OVCAR8 cells stably expressing either miR-520h mimic, a non-targeting mimic control or empty vector. Once tumor implants were readily palpable, weekly administration of cisplatin equivalent to a dose of 5 mg/kg was initiated and given weekly for a total of 4 weeks. This course of treatment was specifically used to mimic the typical course experienced by women undergoing treatment for this illness. […] This observation is consistent with a sensitization of ovarian cancer cells to cisplatin by miR-520h mimic. Cisplatin was continued approximately biweekly at a reduced dose of 1.5 mg/kg until disease progression requiring euthanasia of animals by IACUC criteria. […] In contrast, median survival for animals xenografted with OVCAR8 cells stably transfected with empty vector or OVCAR8 cells stably expressing non-targeting microRNA control was 79 days and 90 days, respectively.

[2] = test system: phopho-CHK2 (T68); test: Western blot of phospho-CHK2 in OVCAR8 cells; format: cell-based, human; conditions: OVCAR8 with cisplatin
Description: Whole cell lysates equivalent to 30 μg of protein were resolved on 4-12% gradient SDS-PAGE. Resolved proteins were transferred onto PVDF membranes using the iBlot system (Invitrogen). Rabbit polyclonal and/or mouse monoclonal antibodies specifically recognizing ATM, phospo-ATM (Ser1981) CHK1 phospho-CHK1 (Ser216), p21, phospo-CHK2 ([…]), BCL2, XIAP, CDC25A were obtained from Cell Signaling Technologies (Danvers, Mass.). A rabbit polyclonal antibody recognizing FANCD2 was also purchased from Abcam (Cambridge, Mass.). Protein expression was visualized using species-specific, horseradish peroxidase-conjugated secondary antibody (Cell Signaling) and ECL Plus chemiluminescent substrate (Amersham, Buckinghamshire, UK).

B1: hsa-mir-520h MI0003175 (nucleic acid, listed as Homo sapiens)
chain: UCCCAUGCUGUGACCCUCUAGAGGAAGCACUUUCUGUUUGUUGUCUGAGAAAAAACAAAGUGCUUCCCUUUAGAGUUACUGUUUGGGA
modifications: expressed or natural sequence
notes: synthetic mimic or stably expressed from pLemiR vector; written miR-520g/h interchangeably
With B1 the Mean survival ([1]; 4×10^6 OVCAR8 cells, cisplatin 5 mg/kg weekly 4 weeks then 1.5 mg/kg biweekly) was 114 days, the Mean survival ([1]; biweekly maintenance IV regimen of 5 mg/m^2 cisplatin) was 130 days and the “Xenograft response to cisplatin regimen” value ([1]; cisplatin 5 mg/kg weekly for 4 weeks) was “nearly complete elimination of disease”. The “Increase in survival vs empty vector control” value ([1]; cisplatin-treated xenografted animals) was about 44%, the Median survival ([1]; mice xenografted with 2.5×10^6 OVCAR8 cells expressing the mimic, cisplatin doses, controls 90 and 79 days) was 113 days and the “Implant size at necropsy” value ([1]; vs non-targeting mimic control or empty vector) was “significantly smaller”. The “phospho-CHK2 (T68) level” value [2] was “increased levels”.
